Reference: patent US20060241039A1

Target: FVa light chain (FVaL) derived from ΔFV or its mutants by thrombin (human) (UniProt P12259)
Assay: cell-based or functional assay

Sequence of UniProt P12259 (P12259 other isoform, or with tags, fused parts or gaps mutant limits assumed): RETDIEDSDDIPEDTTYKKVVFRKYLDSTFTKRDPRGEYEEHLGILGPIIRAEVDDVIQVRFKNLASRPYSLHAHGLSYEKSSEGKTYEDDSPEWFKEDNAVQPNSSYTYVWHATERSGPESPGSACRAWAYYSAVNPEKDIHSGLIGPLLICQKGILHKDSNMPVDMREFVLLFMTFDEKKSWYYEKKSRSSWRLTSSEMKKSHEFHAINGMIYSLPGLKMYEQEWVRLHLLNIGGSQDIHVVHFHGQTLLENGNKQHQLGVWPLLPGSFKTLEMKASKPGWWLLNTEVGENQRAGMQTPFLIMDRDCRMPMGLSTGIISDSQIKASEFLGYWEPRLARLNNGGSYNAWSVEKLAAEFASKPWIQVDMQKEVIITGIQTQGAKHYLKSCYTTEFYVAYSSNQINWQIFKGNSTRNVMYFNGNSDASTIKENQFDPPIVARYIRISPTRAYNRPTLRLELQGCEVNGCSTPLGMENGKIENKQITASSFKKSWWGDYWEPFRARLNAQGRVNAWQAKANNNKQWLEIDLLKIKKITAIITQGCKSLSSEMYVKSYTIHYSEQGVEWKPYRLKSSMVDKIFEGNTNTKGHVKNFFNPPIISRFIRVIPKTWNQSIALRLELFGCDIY

inhibition of ΔFV activity (prothrombinase function, thrombin generation): 98%
Substance: FVaH derived from ΔFV multipoint mutant ED/EDD (E96, D102, E108, D111 and D112 to Ala) (from UniProt P12259 29-737)
